Measurements from patent publication US20160200782A1 (MOERAE MATRIX, published 2016).
Blank lines part the entries; values can stand above or below the binder they belong to.

How the values were obtained:
Assay in all cases: cell-based or functional assay
NLK(h) = molecular target: T1, NLK(h) (human, UniProt Q9UBE8 1-527, limits assumed)
T1 sequence (looked up): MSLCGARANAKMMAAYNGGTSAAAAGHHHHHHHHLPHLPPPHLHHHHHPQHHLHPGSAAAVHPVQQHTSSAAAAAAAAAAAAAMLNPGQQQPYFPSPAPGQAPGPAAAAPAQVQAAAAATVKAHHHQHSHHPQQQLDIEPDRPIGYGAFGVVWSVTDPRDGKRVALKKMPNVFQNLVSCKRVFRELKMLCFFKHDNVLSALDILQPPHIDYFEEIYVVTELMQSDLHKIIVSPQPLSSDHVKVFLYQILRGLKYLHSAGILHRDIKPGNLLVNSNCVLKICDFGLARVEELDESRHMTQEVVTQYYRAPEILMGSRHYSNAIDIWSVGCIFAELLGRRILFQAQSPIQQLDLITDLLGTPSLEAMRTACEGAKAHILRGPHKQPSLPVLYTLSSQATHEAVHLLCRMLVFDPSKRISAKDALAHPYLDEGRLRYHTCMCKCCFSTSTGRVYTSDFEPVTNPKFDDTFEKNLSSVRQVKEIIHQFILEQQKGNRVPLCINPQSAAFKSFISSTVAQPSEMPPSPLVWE

Tec(h)activated = molecular target: T2, Tec(h)activated (human, UniProt P42680 1-631, limits assumed)
T2 sequence (looked up): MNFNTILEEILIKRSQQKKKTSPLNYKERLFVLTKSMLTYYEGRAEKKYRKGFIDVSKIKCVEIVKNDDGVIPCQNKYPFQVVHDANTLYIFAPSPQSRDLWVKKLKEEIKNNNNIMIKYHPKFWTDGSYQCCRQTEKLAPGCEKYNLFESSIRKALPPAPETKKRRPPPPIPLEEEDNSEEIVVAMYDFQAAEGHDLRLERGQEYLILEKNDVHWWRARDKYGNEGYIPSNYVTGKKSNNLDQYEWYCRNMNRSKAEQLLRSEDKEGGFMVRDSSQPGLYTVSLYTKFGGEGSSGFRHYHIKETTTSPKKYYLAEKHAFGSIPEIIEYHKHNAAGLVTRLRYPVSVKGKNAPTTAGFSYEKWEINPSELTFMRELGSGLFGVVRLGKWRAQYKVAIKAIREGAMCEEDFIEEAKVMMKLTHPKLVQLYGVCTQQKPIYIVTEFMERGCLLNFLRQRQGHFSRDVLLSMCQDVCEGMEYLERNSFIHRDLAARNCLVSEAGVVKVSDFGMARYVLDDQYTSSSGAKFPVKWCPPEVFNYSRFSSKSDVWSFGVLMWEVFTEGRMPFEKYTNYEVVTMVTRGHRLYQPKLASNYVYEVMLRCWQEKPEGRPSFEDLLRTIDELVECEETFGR

p70S6K(h) = p70S6K(h) (human, UniProt P23443 1-421, limits assumed)
Chain of p70S6K(h) (P23443 1-421 limits assumed): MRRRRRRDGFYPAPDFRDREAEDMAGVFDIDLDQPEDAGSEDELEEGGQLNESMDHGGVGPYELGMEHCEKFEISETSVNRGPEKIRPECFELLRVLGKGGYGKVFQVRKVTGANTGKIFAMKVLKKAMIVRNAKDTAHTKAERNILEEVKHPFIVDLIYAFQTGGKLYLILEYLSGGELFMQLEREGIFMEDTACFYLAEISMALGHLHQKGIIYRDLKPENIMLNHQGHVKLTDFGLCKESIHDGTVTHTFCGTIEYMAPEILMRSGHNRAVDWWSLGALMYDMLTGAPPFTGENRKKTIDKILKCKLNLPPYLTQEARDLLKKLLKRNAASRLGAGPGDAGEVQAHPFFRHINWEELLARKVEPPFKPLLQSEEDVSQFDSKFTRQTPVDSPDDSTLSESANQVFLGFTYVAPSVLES

FGFR2(h) = FGFR2(h) (human, UniProt P21802 456-770, limits assumed)
Chain of FGFR2(h) (P21802 456-770 limits assumed): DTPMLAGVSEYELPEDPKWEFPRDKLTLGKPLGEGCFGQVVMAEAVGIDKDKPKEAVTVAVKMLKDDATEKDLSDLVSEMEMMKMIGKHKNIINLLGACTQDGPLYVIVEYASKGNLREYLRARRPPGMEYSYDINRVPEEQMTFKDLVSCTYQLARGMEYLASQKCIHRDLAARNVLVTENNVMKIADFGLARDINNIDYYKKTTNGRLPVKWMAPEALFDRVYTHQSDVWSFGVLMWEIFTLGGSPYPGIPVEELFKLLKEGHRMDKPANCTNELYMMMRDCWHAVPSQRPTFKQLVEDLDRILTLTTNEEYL

MST2(h) = molecular target: T3, MST2(h) (human, UniProt Q13188 1-491, limits assumed)
T3 sequence (looked up): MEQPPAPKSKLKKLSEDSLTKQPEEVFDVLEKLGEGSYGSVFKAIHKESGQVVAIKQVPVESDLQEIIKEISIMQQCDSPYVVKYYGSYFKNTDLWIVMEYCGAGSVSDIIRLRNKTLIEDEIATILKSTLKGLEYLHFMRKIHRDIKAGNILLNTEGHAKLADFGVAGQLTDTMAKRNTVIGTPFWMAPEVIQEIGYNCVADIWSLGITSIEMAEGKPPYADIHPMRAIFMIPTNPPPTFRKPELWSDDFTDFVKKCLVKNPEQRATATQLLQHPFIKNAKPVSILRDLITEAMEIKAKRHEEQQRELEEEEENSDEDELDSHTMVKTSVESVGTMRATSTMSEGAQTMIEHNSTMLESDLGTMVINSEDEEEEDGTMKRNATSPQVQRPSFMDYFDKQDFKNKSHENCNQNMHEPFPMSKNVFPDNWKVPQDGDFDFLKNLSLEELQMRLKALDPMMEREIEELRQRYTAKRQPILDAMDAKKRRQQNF

VRK2(h) = VRK2(h) (human, UniProt Q86Y07 1-508, limits assumed)
Chain of VRK2(h) (Q86Y07 whole entry): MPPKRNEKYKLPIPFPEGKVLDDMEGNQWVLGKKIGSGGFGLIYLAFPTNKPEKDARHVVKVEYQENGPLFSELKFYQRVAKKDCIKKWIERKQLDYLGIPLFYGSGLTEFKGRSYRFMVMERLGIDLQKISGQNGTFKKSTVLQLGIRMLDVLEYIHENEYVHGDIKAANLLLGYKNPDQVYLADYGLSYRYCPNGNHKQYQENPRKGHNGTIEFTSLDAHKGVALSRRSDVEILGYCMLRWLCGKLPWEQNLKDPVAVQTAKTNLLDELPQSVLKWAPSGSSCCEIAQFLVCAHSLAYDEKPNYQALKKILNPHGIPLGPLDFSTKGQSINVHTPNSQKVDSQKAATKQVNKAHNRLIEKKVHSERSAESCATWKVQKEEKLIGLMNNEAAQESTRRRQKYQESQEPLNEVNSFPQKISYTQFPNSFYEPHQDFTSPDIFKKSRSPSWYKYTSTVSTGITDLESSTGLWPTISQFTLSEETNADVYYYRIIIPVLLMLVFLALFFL

JNK3(h) = JNK3(h) (human, UniProt P53779 1-464, limits assumed)
Chain of JNK3(h) (P53779 whole entry): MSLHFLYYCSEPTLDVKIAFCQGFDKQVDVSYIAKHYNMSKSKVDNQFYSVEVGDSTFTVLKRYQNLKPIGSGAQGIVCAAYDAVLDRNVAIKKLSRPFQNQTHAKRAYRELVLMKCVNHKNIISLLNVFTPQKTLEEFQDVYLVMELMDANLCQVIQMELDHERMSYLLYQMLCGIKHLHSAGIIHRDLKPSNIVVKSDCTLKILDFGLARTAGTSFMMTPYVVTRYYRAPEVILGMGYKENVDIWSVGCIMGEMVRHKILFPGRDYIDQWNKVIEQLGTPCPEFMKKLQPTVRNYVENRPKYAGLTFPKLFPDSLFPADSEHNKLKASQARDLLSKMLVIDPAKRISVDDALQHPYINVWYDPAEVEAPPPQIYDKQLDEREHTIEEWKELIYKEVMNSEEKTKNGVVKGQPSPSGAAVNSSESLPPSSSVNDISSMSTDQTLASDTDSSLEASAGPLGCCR

PKG1β(h) = molecular target: T4, PKG1β(h) (human, UniProt Q13976-2 1-686)
T4 sequence (looked up): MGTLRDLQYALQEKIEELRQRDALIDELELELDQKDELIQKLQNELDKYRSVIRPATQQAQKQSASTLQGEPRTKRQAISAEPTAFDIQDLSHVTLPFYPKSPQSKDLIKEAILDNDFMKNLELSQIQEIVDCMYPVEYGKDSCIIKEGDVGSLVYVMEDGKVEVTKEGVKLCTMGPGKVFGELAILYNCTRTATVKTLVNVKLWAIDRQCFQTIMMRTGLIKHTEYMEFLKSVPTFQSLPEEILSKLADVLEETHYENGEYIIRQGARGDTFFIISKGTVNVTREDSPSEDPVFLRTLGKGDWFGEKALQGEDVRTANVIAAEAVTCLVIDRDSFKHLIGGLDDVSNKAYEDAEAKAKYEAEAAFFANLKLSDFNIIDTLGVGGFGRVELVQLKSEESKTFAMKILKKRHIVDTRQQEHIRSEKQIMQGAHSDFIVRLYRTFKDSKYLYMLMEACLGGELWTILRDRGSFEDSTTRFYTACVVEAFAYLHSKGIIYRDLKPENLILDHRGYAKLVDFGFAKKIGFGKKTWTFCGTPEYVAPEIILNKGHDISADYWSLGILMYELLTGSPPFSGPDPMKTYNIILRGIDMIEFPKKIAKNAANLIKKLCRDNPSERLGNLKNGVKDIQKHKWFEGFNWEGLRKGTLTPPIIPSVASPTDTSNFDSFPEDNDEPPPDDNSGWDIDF

ROCK-I(h) = ROCK-I(h) (human, UniProt Q13464 17-535)
Chain of ROCK-I(h) (Q13464 17-535 limits assumed): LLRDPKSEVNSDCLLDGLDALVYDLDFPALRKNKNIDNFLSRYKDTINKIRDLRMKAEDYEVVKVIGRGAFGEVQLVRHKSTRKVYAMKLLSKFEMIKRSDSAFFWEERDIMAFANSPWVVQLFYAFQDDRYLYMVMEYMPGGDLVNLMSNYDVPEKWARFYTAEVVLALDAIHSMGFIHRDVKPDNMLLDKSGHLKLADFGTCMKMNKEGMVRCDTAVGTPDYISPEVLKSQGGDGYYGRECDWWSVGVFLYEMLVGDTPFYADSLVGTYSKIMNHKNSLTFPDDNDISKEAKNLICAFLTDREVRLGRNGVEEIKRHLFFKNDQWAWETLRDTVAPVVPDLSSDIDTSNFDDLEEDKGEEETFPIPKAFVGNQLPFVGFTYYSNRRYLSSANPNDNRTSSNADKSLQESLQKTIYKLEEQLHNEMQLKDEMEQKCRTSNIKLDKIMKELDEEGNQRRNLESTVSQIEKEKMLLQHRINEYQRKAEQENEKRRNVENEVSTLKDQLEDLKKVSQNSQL

MAPK2(h) = MAPK2(h) (human, UniProt P28482 1-360)
Chain of MAPK2(h) (P28482 whole entry): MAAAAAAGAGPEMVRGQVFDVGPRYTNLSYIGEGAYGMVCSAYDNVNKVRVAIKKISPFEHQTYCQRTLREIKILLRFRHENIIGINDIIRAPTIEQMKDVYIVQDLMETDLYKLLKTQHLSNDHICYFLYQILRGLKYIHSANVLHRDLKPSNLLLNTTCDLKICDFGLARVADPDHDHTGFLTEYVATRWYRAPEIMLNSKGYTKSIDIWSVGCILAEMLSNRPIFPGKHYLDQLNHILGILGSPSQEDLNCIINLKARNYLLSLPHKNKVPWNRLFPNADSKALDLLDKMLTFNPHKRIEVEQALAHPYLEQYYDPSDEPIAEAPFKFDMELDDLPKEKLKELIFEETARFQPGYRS

FGFR4(h) = FGFR4(h) (human, UniProt P22455 460-802, limits assumed)
Chain of FGFR4(h) (P22455 460-802 limits assumed): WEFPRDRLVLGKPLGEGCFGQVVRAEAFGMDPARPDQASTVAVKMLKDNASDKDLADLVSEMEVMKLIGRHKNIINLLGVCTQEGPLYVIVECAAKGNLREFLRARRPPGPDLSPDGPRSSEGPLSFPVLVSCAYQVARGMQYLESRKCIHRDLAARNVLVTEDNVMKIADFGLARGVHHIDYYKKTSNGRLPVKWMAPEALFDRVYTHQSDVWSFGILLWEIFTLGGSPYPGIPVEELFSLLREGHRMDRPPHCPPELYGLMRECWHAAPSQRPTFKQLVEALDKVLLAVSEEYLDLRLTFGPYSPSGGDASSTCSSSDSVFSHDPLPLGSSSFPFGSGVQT

- % activity (NLK(h)): 87%
- % activity (Tec(h)activated): 56%
- % activity (p70S6K(h)): 35%
- % activity (FGFR2(h)): 14%
- % activity (MST2(h)): 19%
- % activity (VRK2(h)): 161%
- % activity (JNK3(h)): 89%
- % activity (PKG1β(h)): 50%
- % activity (ROCK-I(h)): 79%
- % activity (MAPK2(h)): 98%
- % activity (FGFR4(h)): 28%
B1: MMI-0300 (peptide)
peptide: FAKLAARLYRKALARQLGVAA

- % activity (NLK(h)): 90%
- % activity (Tec(h)activated): 29%
- % activity (p70S6K(h)): 33%
- % activity (FGFR2(h)): 18%
- % activity (MST2(h)): 11%
- % activity (VRK2(h)): 185%
- % activity (JNK3(h)): 70%
- % activity (PKG1β(h)): 53%
- % activity (ROCK-I(h)): 73%
- % activity (MAPK2(h)): 93%
- % activity (FGFR4(h)): 19%
B2: MMI-0400 (peptide)
peptide: KAFAKLAARLYRKALARQLGVAA
